The text below walks through data of patent EP4733393A1 (Todo, Tomoki, dated 2026).

One assay concerns the target T1, mouse PD-1 (mouse, UniProt Q02242 25-167).
T1 sequence (looked up): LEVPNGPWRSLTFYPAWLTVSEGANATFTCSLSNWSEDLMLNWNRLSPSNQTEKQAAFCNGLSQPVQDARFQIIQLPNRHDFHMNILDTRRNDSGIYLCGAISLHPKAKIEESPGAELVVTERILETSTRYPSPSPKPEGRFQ
Kind of assay: AlphaLISA Mouse PD-1 and PD-L1 Binding Kit, inhibition of mouse PD-1/PD-L1 binding; concentration as human Fc (Fig. 1-3-1 B).

The target of assay [1] is T2, human CTLA-4 (human, UniProt P16410 36-161).
T2 sequence (looked up): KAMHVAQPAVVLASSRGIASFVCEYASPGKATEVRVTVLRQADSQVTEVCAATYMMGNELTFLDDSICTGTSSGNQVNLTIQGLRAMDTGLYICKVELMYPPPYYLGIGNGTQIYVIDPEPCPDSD
Kind of assay: AlphaLISA Human CTLA-4/CD80 Binding Kit, inhibition of human CTLA-4/CD80 (B7-1) binding; concentration as human Fc (Fig. 7-3-1 B).

Assay [2] deals with T2, human CTLA-4. The experiment in a line: AlphaLISA Human CTLA-4/CD80 Binding Kit, inhibition of human CTLA-4/CD80 (B7-1) binding; concentration as human Fc (Fig. 7-3-2 B).

B1: anti-mouse PD-1 antibody (derived from J43) with human IgG4 heavy chain constant region and human λ light chain constant region, expressed from the J43/SV-01 … (antibody, V domains shown)
VH: EVRLLESGGGLVKPEGSLKLSCVASGFTFSDYFMSWVRQAPGKGLEWVAHIYTKSYNYATYYSGSVKGRFTISRDDSRSMVYLQMNNLRTEDTATYYCTRDGSGYPSLDFWGQGTQVTVSS
VL: YELTQPPSASVVGETVKITCSGDQLPKYFADWFHQRSDQTILQVIYDDNKRPSGIPERISGSSSGTTATLTIRDVRAEDEGDYYCFSGYVDSDSKLYVFGSGTQLTVLG
notes: also called antibody encoded by T-J43
As for B1, the IC50 in the assay with mouse PD-1 was determined as 6.81 ng/mL.

B2: anti-human CTLA4 antibody (derived from ipilimumab), expressed from the Ipi/SV-01 plasmid (antibody, human IgG1, kappa, V domains shown)
VH: QVQLVESGGGVVQPGRSLRLSCAASGFTFSSYTMHWVRQAPGKGLEWVTSISYDGNNKYYADSVKGRFTISRDNSKNTLYLQMNSLRAEDTAIYYCARTGWLGPFDYWGQGTLVTVSS
VL: not shown
notes: also called antibody encoded by T-Ipi
On to B2, for which the IC50 with human CTLA-4 [1] came out at 8.24 ng/mL.

B3: anti-human CTLA4 antibody (derived from ticilimumab), expressed from the Tic/SV-01 plasmid (antibody, human IgG2, kappa, V domains shown)
VH: QVQLVESGGGVVQPGRSLRLSCAASGFTFSSYGMHWVRQAPGKGLEWVAVIWYDGSNKYYADSVKGRFTISRDNSKNTLYLQMNSLRAEDTAVYYCARDPRGATLYYYYYGMDVWGQGTTVTVSS
VL: DIQMTQSPSSLSASVGDRVTITCRASQSINSYLDWYQQKPGKAPKLLIYAASSLQSGVPSRFSGSGSGTDFTLTISSLQPEDFATYYCQQYYSTPFTFGPGTKVEIKR
notes: also called antibody encoded by T-Tic; derived from ticilimumab (tremelimumab)
The molecule B3 showed a half-inhibitory concentration (IC50) with human CTLA-4 [2] of 25.4 ng/mL.
